Measured values as given in patent US5763174.
Where two headings read alike, the source gives them in different places. One block for each substance: values may come before it.

Legend:
[1] = target: recombinant F-WT DRADA protein (full-length 140 kD human DRADA protein carrying an epitope-tag peptide FLAG at the NH2-terminal) (human)
[2] = target: T1, DRADA (dsRNA adenosine deaminase, purified 93/88/83 kD forms) (Bos taurus) (UniProt F1MUM9); conditions: assay not described; species/form of DRADA not stated in the passage
T1 sequence: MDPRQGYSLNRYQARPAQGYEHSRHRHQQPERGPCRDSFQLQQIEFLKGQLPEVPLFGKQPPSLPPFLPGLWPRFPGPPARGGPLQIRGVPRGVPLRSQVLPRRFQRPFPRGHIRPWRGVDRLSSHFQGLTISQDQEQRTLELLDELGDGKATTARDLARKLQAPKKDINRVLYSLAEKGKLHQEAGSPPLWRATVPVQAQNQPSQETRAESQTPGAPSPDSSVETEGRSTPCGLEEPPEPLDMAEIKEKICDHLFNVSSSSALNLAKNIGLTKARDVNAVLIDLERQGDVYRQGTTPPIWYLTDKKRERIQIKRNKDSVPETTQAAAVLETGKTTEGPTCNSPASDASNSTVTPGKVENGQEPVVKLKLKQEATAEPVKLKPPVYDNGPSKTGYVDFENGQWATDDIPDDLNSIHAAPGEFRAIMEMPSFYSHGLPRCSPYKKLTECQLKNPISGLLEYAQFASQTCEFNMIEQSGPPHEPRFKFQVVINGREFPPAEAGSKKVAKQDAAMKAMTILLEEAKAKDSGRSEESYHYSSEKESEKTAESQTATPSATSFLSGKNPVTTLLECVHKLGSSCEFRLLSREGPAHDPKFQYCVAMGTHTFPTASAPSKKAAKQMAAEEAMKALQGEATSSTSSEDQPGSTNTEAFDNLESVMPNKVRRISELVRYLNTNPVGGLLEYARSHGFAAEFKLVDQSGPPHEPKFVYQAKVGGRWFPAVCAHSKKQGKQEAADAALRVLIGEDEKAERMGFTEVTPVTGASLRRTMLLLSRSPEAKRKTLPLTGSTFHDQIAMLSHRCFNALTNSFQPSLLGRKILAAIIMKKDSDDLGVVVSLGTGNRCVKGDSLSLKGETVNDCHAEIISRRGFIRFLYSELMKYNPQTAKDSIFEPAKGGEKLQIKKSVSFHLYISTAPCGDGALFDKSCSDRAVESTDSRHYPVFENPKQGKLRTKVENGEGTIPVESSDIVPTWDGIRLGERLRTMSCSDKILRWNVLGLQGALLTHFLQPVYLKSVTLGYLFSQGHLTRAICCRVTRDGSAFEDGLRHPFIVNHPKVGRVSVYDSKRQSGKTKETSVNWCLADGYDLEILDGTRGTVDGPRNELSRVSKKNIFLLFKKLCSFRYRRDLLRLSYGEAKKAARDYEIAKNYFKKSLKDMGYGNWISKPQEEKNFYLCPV

[3] = target: T2, F-WT DRADA (Homo sapiens) (UniProt P55265); conditions: editing at intronic +60 site by DRADA alone; no Q/R editing alone, up to 34% Q/R with 293 extract cofactor
T2 sequence: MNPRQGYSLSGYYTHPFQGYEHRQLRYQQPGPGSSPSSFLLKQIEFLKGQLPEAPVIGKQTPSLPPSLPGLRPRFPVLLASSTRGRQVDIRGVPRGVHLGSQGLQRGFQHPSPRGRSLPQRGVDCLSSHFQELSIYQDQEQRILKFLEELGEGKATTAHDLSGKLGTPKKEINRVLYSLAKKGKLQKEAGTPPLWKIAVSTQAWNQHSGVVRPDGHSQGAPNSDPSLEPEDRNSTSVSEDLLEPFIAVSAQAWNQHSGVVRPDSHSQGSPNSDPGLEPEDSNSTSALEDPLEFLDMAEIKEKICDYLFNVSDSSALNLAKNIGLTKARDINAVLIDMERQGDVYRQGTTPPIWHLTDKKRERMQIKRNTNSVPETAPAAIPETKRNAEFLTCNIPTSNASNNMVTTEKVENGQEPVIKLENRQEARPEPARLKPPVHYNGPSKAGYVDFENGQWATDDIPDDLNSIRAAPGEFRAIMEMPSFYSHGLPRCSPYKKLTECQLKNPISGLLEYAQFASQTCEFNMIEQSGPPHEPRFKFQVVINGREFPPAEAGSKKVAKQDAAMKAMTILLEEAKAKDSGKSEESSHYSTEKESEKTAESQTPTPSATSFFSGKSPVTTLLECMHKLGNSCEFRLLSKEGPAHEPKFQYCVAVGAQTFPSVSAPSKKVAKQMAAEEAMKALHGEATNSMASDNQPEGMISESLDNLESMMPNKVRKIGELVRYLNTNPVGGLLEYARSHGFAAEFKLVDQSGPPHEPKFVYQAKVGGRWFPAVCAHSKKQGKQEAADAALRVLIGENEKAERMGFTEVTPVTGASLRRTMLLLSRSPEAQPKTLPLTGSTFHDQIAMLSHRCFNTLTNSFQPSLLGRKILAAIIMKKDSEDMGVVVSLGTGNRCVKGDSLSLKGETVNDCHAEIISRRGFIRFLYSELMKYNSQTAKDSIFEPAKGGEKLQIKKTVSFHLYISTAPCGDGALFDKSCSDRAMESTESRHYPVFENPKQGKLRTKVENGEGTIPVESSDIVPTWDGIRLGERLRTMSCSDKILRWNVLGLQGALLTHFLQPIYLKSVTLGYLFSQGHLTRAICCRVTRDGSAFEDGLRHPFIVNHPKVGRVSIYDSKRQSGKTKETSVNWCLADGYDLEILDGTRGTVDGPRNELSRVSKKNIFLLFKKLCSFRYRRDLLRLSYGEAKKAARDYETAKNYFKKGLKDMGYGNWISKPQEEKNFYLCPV

[4] = target: recombinant F-WT DRADA protein (full-length 140 kD human DRADA protein carrying an epitope-tag peptide FLAG at the NH2-terminal) (human); remark: listed apart in the source

Q/R site editing of synthetic GluR-B RNA (in vitro editing, primer extension assay) [1]: 14%
Substance: 293 nuclear extract (unidentified cofactor protein(s) of 293 human embryonic kidney cells) (pool or library)

Substance: 575 bp dsRNA
Kd [2]: 0.23 nM

Substance: GluR-B Bmini RNA (745 nt)
activity [3]: < 79%

Q/R site editing of synthetic GluR-B RNA (in vitro editing, primer extension assay) [4]: 63%
Substance: HeLa nuclear extract (unidentified cofactor protein(s)) (pool or library)
